Results from patent US20190127438A1 (AFFIRIS, published 2019).

What was measured:
[1] = biological target: T1, human IgE (NBS-00911-0-100) (human, UniProt P01854-1 1-428); assay: capture ELISA: adsorber on a capturing antibody, 1 µg/ml IgE, anti IgE-HRPO
T1 construct: Bought reagent; also called soluble IgE
Description: Protease resistant A43-FceRIa adsorber has similar affinity, avidity and specificity to IgE when compared to wild type FceRIa or prior art single chain antibody scFv12 (WO 2012/140214 A1) when comparing IgE binding by capture ELISA. Plates were coated with capturing antibody, after blocking HEK cell-purified recombinant protein derived from ScFv12 and FceRIa transfected cells, coated protein was incubated for 1 hour at RT. 1 μg/ml IgE (NBS-00911-0-100), trapped for 1 h/RT and detected for IgE binding using 1 μg/ml anti IgE-HRPO mAB (Novus Biologicals NBP1-74934) for 1 hour at RT.

[2] = biological target: T1, human IgE (NBS-00911-0-100); assay: SPR (Biacore 2000, 25 °C), adsorber captured by anti-Tag mAB, IgE 0.5-64 nM as analyte, 1:1 model
Description: The surface of a Streptavidine (SA) sensor chip (GE Healthcare Biacore, Cat. Nr. BR-1000-32) was prepared by three injections with 20 μl of 50 mM NaOH following a 200 μl injection of the biotinylated anti-Tag-mAB (Abcam ab10241) diluted to 2 μg/ml in HBS-EP (0.01 M HEPES, 0.15 M NaCl, 3 mM EDTA, 0.005% (v/v) surfactant P20 (pH 7.4) (GE Healthcare Cat. Nr. BR-1001-88) resulting in an immobilization level of ˜2500 RU for capturing on flow cell 4. Free SA-binding sites were saturated by two consecutive 100 μl injections of 1 mM D-Biotin (Sigma #47868). Flow cell 3 was saturated with free D-Biotin and served as reference cell. The capturing level of FceRIa variants and of the ScFv12 required to obtain a maximal response of 100 RU of IgE binding was calculated to be 75 RU and 80 RU, respectively. Therefore FceRIa, A43-FceRIa and scFv12 were diluted in HBS-EP and injected into flow cell 3 and 4 (30 μl/min) until the immobilization level of 90 RU was reached. After a stabilization time of 10 min with injection of running buffer, the final capturing level of 75 and 80 RU respectively were obtained. Finally the individual interactions of FceRIa, A43-FceRIa and scFv12 with IgE (NBS-00911-0-100) diluted in HBS-EP running buffer at 2-fold increasing concentrations (starting concentration, 0.5 nM; maximum concentration, 64 nM) were assessed with an IgE-association phase of 3 min at a flow rate of 30 μl/min. The dissociation phase was investigated by injection of HBS-EP for 30 min at a flow rate of 30 μl/min. The sensor chip surface was regenerated by injecting 15 μl of 10 mM Glycine-HCl pH 1.8 at the same. The dissociation constant (KD-Value), on-rate (ka) and off-rate (kd) were calculated with BIAevaluation 4.1 (GE Healthcare Biacore) using a 1:1 interaction model. All measurements were performed on a Biacore 2000 device at 25° C.

T1 sequence (P01854 other isoform, or with tags, fused parts or gaps): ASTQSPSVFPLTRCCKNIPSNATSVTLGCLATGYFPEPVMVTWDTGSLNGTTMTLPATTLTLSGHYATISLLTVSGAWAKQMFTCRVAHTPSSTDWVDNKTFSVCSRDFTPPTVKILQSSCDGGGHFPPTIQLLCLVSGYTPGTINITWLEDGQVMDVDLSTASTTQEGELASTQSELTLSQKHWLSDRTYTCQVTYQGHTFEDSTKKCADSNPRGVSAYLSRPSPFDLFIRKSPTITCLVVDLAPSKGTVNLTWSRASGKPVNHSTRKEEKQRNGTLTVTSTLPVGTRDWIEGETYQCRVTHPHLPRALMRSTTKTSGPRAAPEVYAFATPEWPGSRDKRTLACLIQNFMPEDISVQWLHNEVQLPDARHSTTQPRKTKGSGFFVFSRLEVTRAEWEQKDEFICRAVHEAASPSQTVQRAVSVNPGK

| Binder | EC50 [1] [µg/mL] | Kd [2] [nM] | koff [2] [s⁻¹] | kon [2] [M⁻¹ s⁻¹] |
| --- | --- | --- | --- | --- |
| recombinant wild type FceRIa (extracellular region of the alpha chain of the human high-affinity IgE receptor, spacer, 6His) (receptor, Peptide K (VPQKPK...) begins at V26, so the secreted protein may begin at residue 26; also called WT-FceRIa; wt-FceRIa; not shown: spacer between FceRIa and 6His) PDGVLAVPQKPKVSLNPPWNRIFKGENVTLTCNGNNFFEVSSTKWFHNGSLSEETNSSLNIVNAKFEDSGEYKCQHQQVNESEPVYLEVFSDWLLLQASAEVVMEGQPLFLRCHGWRNWDVYKVIYYKDGEALKYWYENHNISITNATVEDSGTYYCTGKVWQLDYESEPLNITVIKAPREKYWLQHHHHHH | 0.0245 | 0.473 | 0.00052 | 1.1e+06 |
| protease resistant A43-FceRIa (K43 to A43 variant of recombinant human FceRIa) (receptor, also called A43 mutant; protease-resistant variant A43-FceRIa; not shown: spacer) chain (part 1 of 2): PDGVLAVPQKPKVSLNPPWNRIFAGENVTLTCNGNNFFEVSSTKWFHNGSLSEETNSSLNIVNAKFEDSGEYKCQHQQVNESEPVYLEVFSDWLLLQASAEVVMEGQPLFLRCHGWRNWDVYKVIYYKDGEALKYWYENHNISITNATVEDSGTYYCTGKVWQLDYESEPLNITVIKAPREKYWLQ chain (part 2 of 2): HHHHHH | 0.0344 | 0.379 | 0.000492 | 1.3e+06 |
